# Molecular target: thioredoxin (endogenous, mouse mediobasal hypothalamus extracts) (mouse) (UniProt P10639)
# Test: cell-based or functional assay
# UniProt P10639, sequence (P10639 whole entry): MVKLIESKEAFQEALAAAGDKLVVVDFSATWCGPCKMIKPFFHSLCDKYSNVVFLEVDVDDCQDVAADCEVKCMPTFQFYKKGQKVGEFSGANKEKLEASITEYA
thioredoxin activity in the MBH (insulin-reducing assay) (fold decrease),thioredoxin activity in the MBH (insulin-reducing assay) after TXNIP shRNA knockdown [% increase],Substance
2,–,human thioredoxin-interacting protein (hTXNIP) (from UniProt Q9H3M7 1-391)
–,50,"thioredoxin-interacting protein (TXNIP), endogenous mouse (from UniProt Q8BG60 1-397)"

# Source: US20130224222A1
